According to PMC9171807 (Proceedings of the National Academy of Sciences of the …, 2022):
Numbering of substitutions follows the chain as printed.

Key:
[1] = molecular target: MSLN 296 to 591 (Homo sapiens (Human)., UniProt Q13421-3); test: BLI
[2] = molecular target: T1, 17-residue MSLN C terminus peptide (human); test: crystal structure
T1 chain: IPNGYLVLDLSMQEALS

[3] = molecular target: MSLN–585-his (Homo sapiens (Human)., UniProt Q13421-3); test: ELISA

B1: Fab fragment of mAb 15B6 (Fab, V domains shown)
VH: EVQLQQSGPVLVKPGASVKISCKASGYSFTGYYMHWVRQSNGKSLEWIGRINPYTGVPSYKHNFKDKASLTVDKSSSTAYMELHSLTSEDSAVYYCARELGGYWGQGTTLTVSS
VL: QAVVTQESALTTSPGETVTLTCRSSTGAVTTGNYPNWVQEKPDHLFTGLIAGTNNRAPGVPARFSGSLIGDKAALTITGAQTEDEAIYFCALWFSSHWVFGGGTKLTVL
[1]
  binding result: no binding
[2]
  binding result: binds

B2: monoclonal antibody (mAb) 15B6 (antibody, V domains shown)
VH: B1 VH with N41L, G42V, S44R
VL: B1 VL
[3]
  binding result: no binding
